Data on 64 substances can be found in the supplement of paper PMC10598134.

± gives the standard deviation.

The data set is described as follows: collision cross section of modified peptide (TIMS, N2, iRT-aligned); higher = larger / more extended gas-phase ion. A digest of the protocol:
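Collision cross section was derived from the Mason-Schamp equation. Each value averages 1–3 technical replicates of the most abundant feature per charge state, measured on a timsTOF Pro/HT in dda-PASEF mode (nitrogen, ~2.4 mbar) after a 120-min nanoflow C18 gradient at 60 °C. Synthetic peptide pools (~100 fmol/µL in 2% acetonitrile/0.1% formic acid, iRT standard spiked 1:40) were identified with MaxQuant, and 1/K0 was calibrated with three reference ions and aligned run-wise to the median iRT peptide deviation.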

Where [1] appears, read: charge state: 2, modification: Formyl.
The mark [2] stands for this setting: charge state: 2, modification: Glutarylation.
Where [3] appears, read: charge state: 2, modification: GlyGly (K).
Where [4] appears, read: charge state: 3, modification: GlyGly (K).
The mark [5] stands for this setting: charge state: 2, modification: Malonyl.
[6] abbreviates: charge state: 2, modification: Methyl (K).
The mark [7] stands for this setting: charge state: 2, modification: Propionyl.
Setting [8] is: charge state: 2, modification: Succinyl.
[9] abbreviates: charge state: 2, modification: Trimethyl (K).
Setting [10] is: charge state: 3, modification: Trimethyl (K).
The mark [11] stands for this setting: charge state: 2, modification: hydroxyisobutyryl.
Where [12] appears, read: charge state: 2, modification: Acetyl (K).
Where [13] appears, read: charge state: 3, modification: Acetyl (K).
[14] abbreviates: charge state: 3, modification: Biotin.
The mark [15] stands for this setting: charge state: 2, modification: Butyryl.
Setting [16] is: charge state: 3, modification: Butyryl.
Where [17] appears, read: charge state: 2, modification: Crotonyl.
Setting [18] is: charge state: 2, modification: Dimethyl (K).
[19] abbreviates: charge state: 3, modification: Dimethyl (K).
Setting [20] is: charge state: 3, modification: Glutarylation.
Where [21] appears, read: charge state: 3, modification: Methyl (K).
Where [22] appears, read: charge state: 2, modification: Nitro (Y).
Setting [23] is: charge state: 2, modification: Phospho (Y).
The mark [24] stands for this setting: charge state: 2, modification: Biotin.

In turn, LDEKENLSAK [_LDEK(Formyl)ENLSAK_] showed a collision cross section under setting [1] of 361.57 ± 0.88 Å². Under setting [2], “LDEKENLSAK [_LDEK(Gluratylation)ENLSAK_]” had a collision cross section of 373.82 ± 0.62 Å². For LDEKENLSAK [_LDEK(GlyGly (K))ENLSAK_], the collision cross section is 379.07 ± 1.5 Å² under setting [3] and 437.31 ± 1.9 Å² under setting [4]. For LDEKENLSAK [_LDEK(Malonyl)ENLSAK_], the collision cross section under setting [5] is reported as 361.65 ± 0.75 Å². As for LDEKENLSAK [_LDEK(Methyl (K))ENLSAK_], the collision cross section under setting [6] is recorded as 366.29 ± 0.55 Å². In turn, LDEKENLSAK [_LDEK(Propionyl)ENLSAK_] gave a collision cross section under setting [7] of 369.99 ± 0.94 Å². As for LDEKENLSAK [_LDEK(Succinyl)ENLSAK_], the collision cross section under setting [8] worked out at 369.34 ± 0.74 Å². On to “LDEKENLSAK [_LDEK(Trimethyl (K))ENLSAK_]”, for which the collision cross section was found to be 376.2 ± 0.61 Å² under setting [9] and 441.92 ± 3.4 Å² under setting [10]. Take “LDEKENLSAK [_LDEK(hydroxyisobutyryl)ENLSAK_]”: the collision cross section under setting [11] is listed as 373.33 ± 0.28 Å².

LDHLAEKFR [_LDHLAEK(Acetyl (K))FR_] yielded a collision cross section under setting [12] of 371.59 ± 0.95 Å² and a collision cross section under setting [13] of 438.53 ± 3.2 Å². On to LDHLAEKFR [_LDHLAEK(Biotin)FR_], for which the collision cross section under setting [14] is 452.58 Å².

On to LDHLAEKFR [_LDHLAEK(Butyryl)FR_], for which the collision cross section is 377.54 ± 1.3 Å² under setting [15] and 440.5 ± 3.8 Å² under setting [16].

Turning to LDHLAEKFR [_LDHLAEK(Crotonyl)FR_], the collision cross section runs as follows: under setting [17], 378.01 ± 0.89 Å²; (charge state: 3, modification: Crotonyl) 440.09 ± 1.3 Å². LDHLAEKFR [_LDHLAEK(Dimethyl (K))FR_]: the collision cross section stood at 368.82 ± 0.36 Å² under setting [18] and 433.76 ± 2.1 Å² under setting [19].

For the substance LDHLAEKFR [_LDHLAEK(Formyl)FR_], the collision cross section reads like this: under setting [1], 364.92 ± 0.89 Å²; (charge state: 3, modification: Formyl) 435.6 ± 2.1 Å². On to LDHLAEKFR [_LDHLAEK(Gluratylation)FR_], for which the collision cross section reads like this: under setting [2], 375.69 ± 0.099 Å²; under setting [20], 446.6 ± 1.7 Å². LDHLAEKFR [_LDHLAEK(GlyGly (K))FR_]: the collision cross section reads like this: under setting [3], 374.05 ± 1.1 Å²; under setting [4], 449.01 ± 1.6 Å².

Substance LDHLAEKFR [_LDHLAEK(Malonyl)FR_] returned a collision cross section under setting [5] of 366.99 ± 1.7 Å².

Consider LDHLAEKFR [_LDHLAEK(Methyl (K))FR_], for which the collision cross section by setting is: under setting [6], 368.51 ± 0.5 Å²; under setting [21], 450.7 ± 4.8 Å². LDHLAEKFR [_LDHLAEK(Propionyl)FR_]: the collision cross section (charge state: 3, modification: Propionyl) is on record as 442.11 ± 0.59 Å².

Substance LDHLAEKFR [_LDHLAEK(Succinyl)FR_] returned a collision cross section under setting [8] of 369.4 ± 0.74 Å² and a collision cross section (charge state: 3, modification: Succinyl) of 444.17 ± 3.4 Å².

In the case of LDHLAEKFR [_LDHLAEK(Trimethyl (K))FR_], the collision cross section under setting [10] was determined as 436.32 ± 0.025 Å². For “LDHLAEKFR [_LDHLAEK(hydroxyisobutyryl)FR_]”, the collision cross section by setting is: under setting [11], 375.94 ± 0.8 Å²; (charge state: 3, modification: hydroxyisobutyryl) 444.1 ± 2 Å².

“LDINTNTYTSQDLK [_LDINTNTYTS(HexNAc (ST))QDLK_]” registered a collision cross section (charge state: 2, modification: HexNAc (ST)) of 444.16 ± 0.035 Å². Consider LDLSSLAYSGK [_LDLSSLAY(Nitro (Y))SGK_], for which the collision cross section under setting [22] is 385.74 ± 0.17 Å².

As for “LDLSSLAYSGK [_LDLSSLAY(Phospho (Y))SGK_]”, under setting [23], the collision cross section is 374.73 ± 0.68 Å². Substance LDYSDFQIVK [_LDY(Nitro (Y))SDFQIVK_] registered a collision cross section under setting [22] of 369.5 ± 0.55 Å². LDYSDFQIVK [_LDY(Phospho (Y))SDFQIVK_] had a collision cross section under setting [23] of 374.72 ± 0.79 Å². On to “LEENHYNTYISK [_LEENHYNTY(Nitro (Y))ISK_]”, for which the collision cross section came out at 425.11 ± 1.1 Å² under setting [22] and 478.71 ± 0.24 Å² (charge state: 3, modification: Nitro (Y)).

With “LEENHYNTYISK [_LEENHYNTY(Phospho (Y))ISK_]”, the collision cross section by setting is: under setting [23], 422.15 ± 0.06 Å²; (charge state: 3, modification: Phospho (Y)) 477.33 ± 1 Å². As to “LEEVTGKLQVAR [_LEEVTGK(Acetyl (K))LQVAR_]”, the collision cross section under setting [12] was 391.97 ± 0.61 Å² and the collision cross section under setting [13] is recorded as 467.89 Å². The substance LEEVTGKLQVAR [_LEEVTGK(Biotin)LQVAR_] came in with a collision cross section under setting [24] of 414.01 ± 0.23 Å² and a collision cross section under setting [14] of 494.02 ± 0.34 Å². With LEEVTGKLQVAR [_LEEVTGK(Butyryl)LQVAR_], the collision cross section is given as 398.95 ± 0.23 Å² under setting [15] and 467.68 Å² under setting [16]. Regarding LEEVTGKLQVAR [_LEEVTGK(Crotonyl)LQVAR_], under setting [17], the collision cross section is 398.71 ± 0.79 Å². In the case of “LEEVTGKLQVAR [_LEEVTGK(Dimethyl (K))LQVAR_]”, the collision cross section is, setting by setting: under setting [18], 394.61 ± 0.25 Å²; under setting [19], 471.08 ± 2.1 Å². LEEVTGKLQVAR [_LEEVTGK(Formyl)LQVAR_]: under setting [1], the collision cross section came to 388.92 ± 0.55 Å².

In the case of “LEEVTGKLQVAR [_LEEVTGK(Gluratylation)LQVAR_]”, the collision cross section amounted to 400.05 ± 0.12 Å² under setting [2] and 468.97 Å² under setting [20].

“LEEVTGKLQVAR [_LEEVTGK(GlyGly (K))LQVAR_]”: the collision cross section under setting [3] was 407.08 ± 0.86 Å² and the collision cross section under setting [4] is 463.74 ± 1.1 Å².

Regarding LEEVTGKLQVAR [_LEEVTGK(Malonyl)LQVAR_], the collision cross section under setting [5] was 393.19 ± 0.021 Å². Consider “LEEVTGKLQVAR [_LEEVTGK(Methyl (K))LQVAR_]”, for which the collision cross section stood at 393.19 ± 1.7 Å² under setting [6] and 474.94 ± 3.5 Å² under setting [21]. Regarding “LEEVTGKLQVAR [_LEEVTGK(Propionyl)LQVAR_]”, under setting [7], the collision cross section worked out at 394.4 ± 1.3 Å².

LEEVTGKLQVAR [_LEEVTGK(Succinyl)LQVAR_] displayed a collision cross section under setting [8] of 394.87 ± 0.77 Å².

For “LEEVTGKLQVAR [_LEEVTGK(Trimethyl (K))LQVAR_]”, the collision cross section runs as follows: under setting [9], 402.01 ± 1.1 Å²; under setting [10], 471.9 ± 1.5 Å². Under setting [11], “LEEVTGKLQVAR [_LEEVTGK(hydroxyisobutyryl)LQVAR_]” had a collision cross section of 399.92 ± 0.3 Å².

Substance “LEKDYQPGITFIVVQK [_LEKDYQP(Hydroxyproline)GITFIVVQK_]” displayed a collision cross section (charge state: 2, modification: Hydroxyproline) of 457.03 ± 0.32 Å² and a collision cross section (charge state: 3, modification: Hydroxyproline) of 487.95 ± 1.3 Å².

LEKTIDDLEEK [_LEK(Acetyl (K))TIDDLEEK_] came in with a collision cross section under setting [12] of 403.37 ± 1 Å². Consider LEKTIDDLEEK [_LEK(Biotin)TIDDLEEK_], for which the collision cross section under setting [24] was 422.95 ± 1.4 Å².

LEKTIDDLEEK [_LEK(Butyryl)TIDDLEEK_] gave a collision cross section under setting [15] of 409.44 ± 0.57 Å². Take LEKTIDDLEEK [_LEK(Crotonyl)TIDDLEEK_]: the collision cross section under setting [17] is 409.2 ± 1.1 Å². For “LEKTIDDLEEK [_LEK(Dimethyl (K))TIDDLEEK_]”, the collision cross section reads like this: under setting [18], 401.15 ± 1.1 Å²; under setting [19], 461.19 ± 2.1 Å². As for LEKTIDDLEEK [_LEK(Formyl)TIDDLEEK_], the collision cross section under setting [1] is recorded as 399.8 ± 0.55 Å². Consider “LEKTIDDLEEK [_LEK(Gluratylation)TIDDLEEK_]”, for which, under setting [2], the collision cross section came out at 410.17 ± 1.1 Å². For LEKTIDDLEEK [_LEK(GlyGly (K))TIDDLEEK_], the collision cross section was found to be 403.14 ± 0.36 Å² under setting [3] and 473.69 ± 1.1 Å² under setting [4].

In turn, LEKTIDDLEEK [_LEK(Malonyl)TIDDLEEK_] showed a collision cross section under setting [5] of 405.85 ± 0.59 Å². Take LEKTIDDLEEK [_LEK(Methyl (K))TIDDLEEK_]: the collision cross section under setting [6] worked out at 405.66 ± 1.3 Å² and the collision cross section under setting [21] turned out to be 473.34 ± 3.6 Å². Substance LEKTIDDLEEK [_LEK(Propionyl)TIDDLEEK_] registered a collision cross section under setting [7] of 406.15 ± 0.38 Å². LEKTIDDLEEK [_LEK(Succinyl)TIDDLEEK_]: the collision cross section under setting [8] came out at 408.25 ± 0.55 Å². Consider “LEKTIDDLEEK [_LEK(Trimethyl (K))TIDDLEEK_]”, for which the collision cross section by setting is: under setting [9], 402.76 ± 0.62 Å²; under setting [10], 468.63 ± 1.5 Å².

“LEKTIDDLEEK [_LEK(hydroxyisobutyryl)TIDDLEEK_]” gave a collision cross section under setting [11] of 411.13 ± 0.32 Å². As for LELAQYR [_LELAQY(Nitro (Y))R_], the collision cross section under setting [22] is recorded as 326.89 ± 0.56 Å². In turn, LELAQYR [_LELAQY(Phospho (Y))R_] yielded a collision cross section under setting [23] of 329.12 ± 0.75 Å². Take LEQVEKELLR [_LEQVEK(Acetyl (K))ELLR_]: the collision cross section under setting [12] amounted to 385.81 ± 0.48 Å². Under setting [24], LEQVEKELLR [_LEQVEK(Biotin)ELLR_] registered a collision cross section of 410.78 Å². The substance LEQVEKELLR [_LEQVEK(Butyryl)ELLR_] displayed a collision cross section under setting [15] of 391.61 ± 1.3 Å².
